Data published in the supplement of paper PMC7125110.
± gives the standard error. For some of these results: Fewer inactive variants are shown than the library holds.

B1: glmS ribozyme (parent)
chain: AUAAAAGCGCCAGAACUACAGAAAUGUAGUUGACGAGGAGGAGGUUUAUCGAAUUUUCGGCGGAUGCCUCCAAA

What was measured:
Conditions in all cases: with glucosamine-6-phosphate
glucosamine-6-phosphate [1] = variants of: B1; assay: kcat; higher = faster cleavage; RNA array
Summary of the method: (§1)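 Tiles of sequenced MiSeq chips were imaged over ~14 h at 37 °C. On them, barcoded ribozyme variants had been transcribed in situ by E. coli RNA polymerase and were tracked via a hybridised Cy3 probe while glucosamine-6-phosphate (40 μM to 10 mM) in HEPES/KCl/Mg(OAc)2 buffer flowed in. Per-tile medians, normalised to baseline and to non-cleaving reference variants, were fit to one- or two-exponential decays for kobs, and weighted Michaelis–Menten fits gave kcat and KM.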

glucosamine-6-phosphate [2] = variants of: B1; assay: KM; higher = weaker cofactor use; RNA array
Summary of the method: as §1

glucosamine-6-phosphate [3] = variants of: B1; assay: self-cleavage kobs at 160 uM GlcN6P; higher = faster cleavage; RNA array
Summary of the method: as §1

glucosamine-6-phosphate [4] = variants of: B1; assay: self-cleavage kobs at 640 uM GlcN6P; higher = faster cleavage; RNA array
Summary of the method: as §1

glucosamine-6-phosphate [5] = variants of: B1; assay: self-cleavage kobs at 2500 uM GlcN6P; higher = faster cleavage; RNA array
Summary of the method: as §1

glucosamine-6-phosphate [6] = variants of: B1; assay: self-cleavage kobs at 10000 uM GlcN6P; higher = faster cleavage; RNA array
Summary of the method: as §1

glucosamine-6-phosphate [7] = variants of: B1; assay: self-cleavage kobs at 40 uM GlcN6P; higher = faster cleavage; RNA array
Summary of the method: as §1

For U46G G66U, the kcat (glucosamine-6-phosphate [1]) was 0.000756 ± 0.00014 s⁻¹, the KM (glucosamine-6-phosphate [2]) was 2360 ± 740 µM and the “self-cleavage kobs at 160 uM GlcN6P” value (glucosamine-6-phosphate [3]) was 3.38e-05 ± 1.2e-05 s⁻¹. For the same variant, the “self-cleavage kobs at 640 uM GlcN6P” value (glucosamine-6-phosphate [4]) was 0.000177 ± 2.9e-05 s⁻¹, the “self-cleavage kobs at 2500 uM GlcN6P” value (glucosamine-6-phosphate [5]) was 0.000448 ± 8e-05 s⁻¹ and the “self-cleavage kobs at 10000 uM GlcN6P” value (glucosamine-6-phosphate [6]) was 0.000578 ± 8.8e-05 s⁻¹.

For A36U G38U, the kcat (glucosamine-6-phosphate [1]) was under 1e-05 s⁻¹ and the “self-cleavage kobs at 10000 uM GlcN6P” value (glucosamine-6-phosphate [6]) was under 1e-05 s⁻¹.

In the case of A15G A52C, the kcat (glucosamine-6-phosphate [1]) is reported as 2.96e-05 ± 2e-06 s⁻¹, the KM (glucosamine-6-phosphate [2]) is reported as 1090 ± 400 µM and the “self-cleavage kobs at 40 uM GlcN6P” value (glucosamine-6-phosphate [7]) is reported as under 1e-05 s⁻¹. The “self-cleavage kobs at 10000 uM GlcN6P” value (glucosamine-6-phosphate [6]) was 2.66e-05 ± 9.9e-06 s⁻¹.

In the case of C16G U65A, the kcat (glucosamine-6-phosphate [1]) is reported as 0.000589 ± 6.3e-05 s⁻¹, the KM (glucosamine-6-phosphate [2]) is reported as 3010 ± 580 µM and the “self-cleavage kobs at 640 uM GlcN6P” value (glucosamine-6-phosphate [4]) is reported as 0.000107 ± 1.4e-05 s⁻¹. The “self-cleavage kobs at 2500 uM GlcN6P” value (glucosamine-6-phosphate [5]) was 0.00027 ± 6.5e-05 s⁻¹ and the “self-cleavage kobs at 10000 uM GlcN6P” value (glucosamine-6-phosphate [6]) was 0.00045 ± 4.9e-05 s⁻¹.

With C16A A33U the kcat (glucosamine-6-phosphate [1]) was 1.2e-05 ± 3e-06 s⁻¹, the “self-cleavage kobs at 40 uM GlcN6P” value (glucosamine-6-phosphate [7]) was under 1e-05 s⁻¹ and the “self-cleavage kobs at 160 uM GlcN6P” value (glucosamine-6-phosphate [3]) was under 1e-05 s⁻¹.

In the case of A39U G66C C67A, the kcat (glucosamine-6-phosphate [1]) is reported as 0.000462 ± 8.7e-05 s⁻¹, the KM (glucosamine-6-phosphate [2]) is reported as 1570 ± 490 µM and the “self-cleavage kobs at 160 uM GlcN6P” value (glucosamine-6-phosphate [3]) is reported as 4.03e-05 ± 1.3e-05 s⁻¹. For the same variant, the “self-cleavage kobs at 640 uM GlcN6P” value (glucosamine-6-phosphate [4]) was 0.00015 ± 3.2e-05 s⁻¹, the “self-cleavage kobs at 2500 uM GlcN6P” value (glucosamine-6-phosphate [5]) was 0.000248 ± 6.1e-05 s⁻¹ and the “self-cleavage kobs at 10000 uM GlcN6P” value (glucosamine-6-phosphate [6]) was 0.000455 ± 0.00013 s⁻¹.

In the case of U30G G66U, the kcat (glucosamine-6-phosphate [1]) is reported as 0.000295 ± 2e-05 s⁻¹, the KM (glucosamine-6-phosphate [2]) is reported as 1760 ± 290 µM and the “self-cleavage kobs at 640 uM GlcN6P” value (glucosamine-6-phosphate [4]) is reported as 8.02e-05 ± 1.2e-05 s⁻¹. For the same variant, the “self-cleavage kobs at 2500 uM GlcN6P” value (glucosamine-6-phosphate [5]) was 0.000147 ± 3.5e-05 s⁻¹ and the “self-cleavage kobs at 10000 uM GlcN6P” value (glucosamine-6-phosphate [6]) was 0.000256 ± 2.4e-05 s⁻¹.

For A39G G66A, the kcat (glucosamine-6-phosphate [1]) was 0.0379 ± 0.019 s⁻¹, the “self-cleavage kobs at 40 uM GlcN6P” value (glucosamine-6-phosphate [7]) was 0.000706 ± 0.00011 s⁻¹ and the “self-cleavage kobs at 160 uM GlcN6P” value (glucosamine-6-phosphate [3]) was 0.00437 ± 0.0011 s⁻¹. For the same variant, the “self-cleavage kobs at 640 uM GlcN6P” value (glucosamine-6-phosphate [4]) was 0.00601 ± 0.001 s⁻¹, the “self-cleavage kobs at 2500 uM GlcN6P” value (glucosamine-6-phosphate [5]) was 0.0223 ± 0.0067 s⁻¹ and the “self-cleavage kobs at 10000 uM GlcN6P” value (glucosamine-6-phosphate [6]) was 0.0342 ± 0.0078 s⁻¹.

A12G A52G A53G was tested, and the kcat (glucosamine-6-phosphate [1]) was 2.52e-05 ± 7.9e-06 s⁻¹.

For G13U A53G, the kcat (glucosamine-6-phosphate [1]) was 0.0022 ± 0.00047 s⁻¹, the KM (glucosamine-6-phosphate [2]) was 4460 ± 1300 µM and the “self-cleavage kobs at 40 uM GlcN6P” value (glucosamine-6-phosphate [7]) was 2.14e-05 ± 9.7e-06 s⁻¹. The “self-cleavage kobs at 160 uM GlcN6P” value (glucosamine-6-phosphate [3]) was 8.17e-05 ± 1e-05 s⁻¹, the “self-cleavage kobs at 640 uM GlcN6P” value (glucosamine-6-phosphate [4]) was 0.00029 ± 3.4e-05 s⁻¹ and the “self-cleavage kobs at 2500 uM GlcN6P” value (glucosamine-6-phosphate [5]) was 0.000631 ± 9.5e-05 s⁻¹. The “self-cleavage kobs at 10000 uM GlcN6P” value (glucosamine-6-phosphate [6]) was 0.00168 ± 0.0002 s⁻¹.

U31C A42G was tested, and the kcat (glucosamine-6-phosphate [1]) was 0.00894 ± 0.0011 s⁻¹, the KM (glucosamine-6-phosphate [2]) was 2260 ± 400 µM and the “self-cleavage kobs at 40 uM GlcN6P” value (glucosamine-6-phosphate [7]) was 0.000166 ± 2.9e-05 s⁻¹. For the same variant, the “self-cleavage kobs at 160 uM GlcN6P” value (glucosamine-6-phosphate [3]) was 0.000469 ± 0.00016 s⁻¹, the “self-cleavage kobs at 640 uM GlcN6P” value (glucosamine-6-phosphate [4]) was 0.00212 ± 0.00035 s⁻¹ and the “self-cleavage kobs at 2500 uM GlcN6P” value (glucosamine-6-phosphate [5]) was 0.00407 ± 0.0011 s⁻¹. For the same variant, the “self-cleavage kobs at 10000 uM GlcN6P” value (glucosamine-6-phosphate [6]) was 0.00754 ± 0.0012 s⁻¹.

In the case of C11A G62A, the kcat (glucosamine-6-phosphate [1]) is reported as 1.14e-05 ± 2e-06 s⁻¹.

With C16U A48G the kcat (glucosamine-6-phosphate [1]) was 7.95e-05 ± 1.2e-05 s⁻¹, the “self-cleavage kobs at 2500 uM GlcN6P” value (glucosamine-6-phosphate [5]) was 6.63e-05 ± 1.1e-05 s⁻¹ and the “self-cleavage kobs at 10000 uM GlcN6P” value (glucosamine-6-phosphate [6]) was 6.95e-05 ± 8.6e-06 s⁻¹.

In the case of A15G A42U, the kcat (glucosamine-6-phosphate [1]) is reported as 0.000248 ± 4.1e-05 s⁻¹, the KM (glucosamine-6-phosphate [2]) is reported as 1410 ± 570 µM and the “self-cleavage kobs at 160 uM GlcN6P” value (glucosamine-6-phosphate [3]) is reported as 2.77e-05 ± 1.4e-05 s⁻¹. The “self-cleavage kobs at 640 uM GlcN6P” value (glucosamine-6-phosphate [4]) was 6.62e-05 ± 1.7e-05 s⁻¹, the “self-cleavage kobs at 2500 uM GlcN6P” value (glucosamine-6-phosphate [5]) was 0.000216 ± 3.8e-05 s⁻¹ and the “self-cleavage kobs at 10000 uM GlcN6P” value (glucosamine-6-phosphate [6]) was 0.000203 ± 3e-05 s⁻¹.

For A14G A42U, the kcat (glucosamine-6-phosphate [1]) was 0.000931 ± 0.00011 s⁻¹, the KM (glucosamine-6-phosphate [2]) was 3180 ± 600 µM and the “self-cleavage kobs at 160 uM GlcN6P” value (glucosamine-6-phosphate [3]) was 5.25e-05 ± 1.1e-05 s⁻¹. For the same variant, the “self-cleavage kobs at 640 uM GlcN6P” value (glucosamine-6-phosphate [4]) was 0.000152 ± 2.5e-05 s⁻¹, the “self-cleavage kobs at 2500 uM GlcN6P” value (glucosamine-6-phosphate [5]) was 0.000357 ± 7e-05 s⁻¹ and the “self-cleavage kobs at 10000 uM GlcN6P” value (glucosamine-6-phosphate [6]) was 0.000738 ± 9.3e-05 s⁻¹.

In the case of A48G C68G, the kcat (glucosamine-6-phosphate [1]) is reported as 5.98e-05 ± 7.3e-06 s⁻¹, the “self-cleavage kobs at 40 uM GlcN6P” value (glucosamine-6-phosphate [7]) is reported as 4.65e-05 ± 1.2e-05 s⁻¹ and the “self-cleavage kobs at 640 uM GlcN6P” value (glucosamine-6-phosphate [4]) is reported as 7.32e-05 ± 1.6e-05 s⁻¹. For the same variant, the “self-cleavage kobs at 2500 uM GlcN6P” value (glucosamine-6-phosphate [5]) was 5.41e-05 ± 1.2e-05 s⁻¹ and the “self-cleavage kobs at 10000 uM GlcN6P” value (glucosamine-6-phosphate [6]) was 5.84e-05 ± 8.1e-06 s⁻¹.
